In patent US7329410:

What was measured:
[1] = target: Mouse MHC Class I (mouse B6 class I antigens; D^b or K^b molecules on the surface of RMA-S cells) (mouse); experiment: binding of 9mer peptide to mouse B6 (H-2^b) class I antigens; RMA-S cell assay as for Table XLVII
[2] = target: Mouse MHC Class I (mouse B6 class I antigens; D^b or K^b molecules on the surface of RMA-S cells) (mouse); experiment: RMA-S cells incubated with peptide 25 ug/ml, stained with FITC anti-D^b or anti-K^b, flow cytometry; increase in MFI over medium alone

Binder	Binding Affinity to Mouse MHC Class I [1]	Binding Affinity to Mouse MHC Class I (percent increase of D^b or K^b on RMA-S cells) [2]
FPNAPYLPS [WT1 peptide P128-136 …]	1%	–
QMTSQLECM [WT1 peptide p228-236 …]	–	1.2%
GCNKRYFKL [WT1 peptide p329-337 …]	–	1.2%
ASSGQARMF [WT1 peptide P120-128 …]	1%	–
SQASSGQAR [WT1 peptide P118-126 …]	2%	–
PSQASSGQA [WT1 peptide P117-125 …]	2%	–
QASSGQARM [WT1 peptide P119-127 …]	2%	–
YSSDNLYQM [WT1 peptide p221-229 …]	–	0.8%
SCLESQPAI [WT1 peptide human p136-144 …]	–	52%
APYLPSCLE [WT1 peptide P131-139 …]	1%	–

Second part, the binder after the results:

Binding Affinity to Mouse MHC Class I [1]	Binding Affinity to Mouse MHC Class I (percent increase of D^b or K^b on RMA-S cells) [2]	Binder
1%	–	PNAPYLPSC [WT1 peptide P129-137 …]
1%	–	SSGQARMFP [WT1 peptide P121-129 …]
–	2.2%	ALLPAVPSL [WT1 peptide human p10-18 …]
2%	–	MFPNAPYLP [WT1 peptide P127-135 …]
1%	–	QARMFPNAP [WT1 peptide P124-132 …]
–	33.6%	CMTWNQMNL [WT1 peptide p235-243 …]
1%	–	ARMFPNAPY [WT1 peptide P125-133 …]
–	5.8%	NLYQMTSQL [WT1 peptide p225-233 …]
79%	–	NAPYLPSCL [WT1 peptide P130-138 …]
–	1%	NQMNLGATL [WT1 peptide p239-247 …]
